The values that follow come from the supplement of paper PMC7877785.

± gives the uncertainty stated by the source.

This data set can be described thus: self-splicing fitness, log relative to wild type (ln ratio); higher = more splicing; Tetrahymena group I intron in knt gene, E. coli kanamycin selection, DiMSum; sequences stand for … in CUCUCU…GGAGGGAAAAGUUAUCAGGCAUGCACCUGGUAGCUAGUCUUUAAACCAAUAGAUUGCAUCGGUUUAAAAGGCAAGACCGUCAAAUUGCGGGAAAGGGGUCAACAGCCGUUCAGUACCAAGUCUCAGGGGAAACUUUGAGAUGGCCUUGCAAAGGGUAUGGUAAUAAGCUGACGGACAUGGUCCUAACCACGCAGCCAAGUCCUAAGUCAACAGAUCUUCUGUUGAUAUGGAUGCAGUUCACAGACUAAAUGUCGGUCGGGGAAGAUGUAUUCUUCUCAUAAGAUAUAGUCGGACCUCUCCUUAAUGGGAGCUAGCGGAUGAAGUGAUGCAACACUGGAGCCGCUGGGAACUAAUUUGUAUGCGAAAGUAUAUUGAUUAGUUUUGGAGUACUCGUGGUCG
In outline:
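Six replicate transformations of E. coli BL21(DE3) with a pET-22b(+) library were grown overnight at 37°C or 30°C. The library randomised all eight P1ex-region intron nucleotides, the intron lying in the knt kanamycin-resistance gene, and plates were LB agar with or without 25 μg/mL kanamycin plus 100 μg/mL carbenicillin, 50 μM IPTG and 0.2% rhamnose. Pooled colonies were amplicon-sequenced on an Illumina HiSeq 2500, and fitness is the DiMSum error-weighted combination of wild-type-normalised replicate fold changes, kanamycin versus none.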

As to CGUUAGCAAUAUUACGUAUG, the “self-splicing fitness (ln)” value (30 °C) is -2.12 ± 0.097 and the “self-splicing fitness (ln)” value (37 °C) is -0.357 ± 0.097. As to CCCGAGCAAUAUUACGUCGU, the “self-splicing fitness (ln)” value runs as follows: (30 °C) -2.45 ± 0.12; (37 °C) -3.06 ± 0.24.

With GAAAAGCAAUAUUACGCAUU, the “self-splicing fitness (ln)” value (30 °C) was -3.24 ± 0.17 and the “self-splicing fitness (ln)” value (37 °C) is -0.376 ± 0.11. For AGUCAGCAAUAUUACGGCCG, in that order: -1.28 ± 0.11 and -0.527 ± 0.085. Taken in the same sequence, the figures for GGGAAGCAAUAUUACGGUCA were -0.346 ± 0.1 and -0.237 ± 0.11. For CACAAGCAAUAUUACGUCCU, in that order: -1.84 ± 0.12 and -1.05 ± 0.15. Regarding UAAGAGCAAUAUUACGGGAG, the “self-splicing fitness (ln)” value is -3.33 ± 0.24 (30 °C) and -1.83 ± 0.19 (37 °C). As for GAACAGCAAUAUUACGCAGG, the “self-splicing fitness (ln)” value (30 °C) was -3.74 ± 0.14 and the “self-splicing fitness (ln)” value (37 °C) was -2.7 ± 0.11. As to GGCGAGCAAUAUUACGGGGC, the “self-splicing fitness (ln)” value (30 °C) is -3.65 ± 0.29 and the “self-splicing fitness (ln)” value (37 °C) is -2.96 ± 0.34. Taken in the same sequence, the figures for GCGGAGCAAUAUUACGGUGU were -3.36 ± 0.23 and -3.11 ± 0.35. For UCAUAGCAAUAUUACGCUAG, in that order: -3.15 ± 0.22 and -1.34 ± 0.2. On to GGCUAGCAAUAUUACGAAGA, for which the “self-splicing fitness (ln)” value by setting is: (30 °C) -2.05 ± 0.43; (37 °C) -0.778 ± 0.36.

On to AUCAAGCAAUAUUACGUAAC, for which the “self-splicing fitness (ln)” value is -2.98 ± 0.16 (30 °C) and -2.18 ± 0.19 (37 °C). In the case of GAAUAGCAAUAUUACGGUCU, the “self-splicing fitness (ln)” value was -0.677 ± 0.084 (30 °C) and -0.0473 ± 0.097 (37 °C). Regarding GCGUAGCAAUAUUACGCUUA, the “self-splicing fitness (ln)” value (37 °C) was -2.06 ± 0.32. In the case of GACCAGCAAUAUUACGUCAA, the “self-splicing fitness (ln)” value is -2.51 ± 0.18 (30 °C) and -1.06 ± 0.1 (37 °C). As for GCUCAGCAAUAUUACGACAA, the “self-splicing fitness (ln)” value reads like this: (30 °C) -1.6 ± 0.15; (37 °C) -1.42 ± 0.21. Taken in the same sequence, the figures for CGUGAGCAAUAUUACGAAUA were -2.8 ± 0.28 and -2.87 ± 0.32. With CACGAGCAAUAUUACGGAGG, the “self-splicing fitness (ln)” value runs as follows: (30 °C) -4.5 ± 0.36; (37 °C) -2.75 ± 0.28. Taken in the same sequence, the figures for GUGCAGCAAUAUUACGCUAA were -0.546 ± 0.17 and 0.418 ± 0.15.

As for ACCAAGCAAUAUUACGAAUC, the “self-splicing fitness (ln)” value (30 °C) was -1.48 ± 0.18 and the “self-splicing fitness (ln)” value (37 °C) was -1.4 ± 0.2.

Regarding CCCCAGCAAUAUUACGUUAA, the “self-splicing fitness (ln)” value (30 °C) was -3.33 ± 0.14 and the “self-splicing fitness (ln)” value (37 °C) is -2.76 ± 0.13. For AGGAAGCAAUAUUACGAGAG, in that order: -3.03 ± 0.14 and -2.29 ± 0.17. Taken in the same sequence, the figures for CAGUAGCAAUAUUACGAGCG were -0.475 ± 0.087 and 0.263 ± 0.12. For ACUCAGCAAUAUUACGUCCU, in that order: -1.18 ± 0.094 and 0.185 ± 0.11. Consider UCUUAGCAAUAUUACGUAUG, for which the “self-splicing fitness (ln)” value (30 °C) was -1.33 ± 0.15 and the “self-splicing fitness (ln)” value (37 °C) is -0.892 ± 0.18.

As for UCUCAGCAAUAUUACGAUCU, the “self-splicing fitness (ln)” value was -1.68 ± 0.14 (30 °C) and -2 ± 0.2 (37 °C). Taken in the same sequence, the figures for UACCAGCAAUAUUACGUAAU were -2.56 ± 0.097 and -1.06 ± 0.096.

Regarding AUACAGCAAUAUUACGAGAA, the “self-splicing fitness (ln)” value (30 °C) is -2.21 ± 0.25 and the “self-splicing fitness (ln)” value (37 °C) is -1.79 ± 0.16. For UGGCAGCAAUAUUACGGGUA, the “self-splicing fitness (ln)” value runs as follows: (30 °C) -0.841 ± 0.11; (37 °C) 0.0742 ± 0.11.

Turning to GGCGAGCAAUAUUACGAGGC, the “self-splicing fitness (ln)” value is, setting by setting: (30 °C) -3.5 ± 0.23; (37 °C) -3.02 ± 0.27. In the case of UAUUAGCAAUAUUACGGCCG, the “self-splicing fitness (ln)” value is -0.0472 ± 0.19 (30 °C) and 0.135 ± 0.31 (37 °C).

For UAAGAGCAAUAUUACGUAAU, the “self-splicing fitness (ln)” value (30 °C) is -3.14 ± 0.15 and the “self-splicing fitness (ln)” value (37 °C) was -3.17 ± 0.29. Consider CACAAGCAAUAUUACGCACA, for which the “self-splicing fitness (ln)” value is -1.08 ± 0.087 (30 °C) and -0.518 ± 0.098 (37 °C). As for UUUUAGCAAUAUUACGCUGG, the “self-splicing fitness (ln)” value was -3.74 ± 0.39 (30 °C) and -2.88 ± 0.44 (37 °C). Turning to ACGGAGCAAUAUUACGGGUC, where the note is “37 °C”, the “self-splicing fitness (ln)” value is -2.58 ± 0.38. In the case of CGAUAGCAAUAUUACGUACG, the “self-splicing fitness (ln)” value reads like this: (30 °C) -1.83 ± 0.097; (37 °C) -1.05 ± 0.1. For AGAAAGCAAUAUUACGAAGA, in that order: -2.95 ± 0.24 and -2.27 ± 0.33.
